# Measurements: patent publication US6721663B1, “Method for manipulating protein or DNA sequence data in order to generate complementary peptide ligands” (Proteom Limited, priority 1999, dated 2004)
# Legend:
# [1] = target: T1, IL-1 (Homo sapiens, UniProt P01584); assay: Serum Amyloid IL-1 assay; assay type: cell-based; conditions: FIG. 14
# Description: (§1) The program picked out antisense region LITVLNI (SEQ ID No. 8) in the IL-1R receptor.
# [2] = target: IL-1b (Homo sapiens, UniProt P01584); assay: ESAP assay of IL-1b biological activity; assay type: cell-based; conditions: FIG. 14
# Chain of IL-1b (P01584 117-269): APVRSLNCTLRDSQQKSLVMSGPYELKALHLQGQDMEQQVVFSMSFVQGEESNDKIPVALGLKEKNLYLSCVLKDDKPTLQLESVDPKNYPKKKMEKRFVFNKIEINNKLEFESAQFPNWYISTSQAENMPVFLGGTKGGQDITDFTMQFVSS
# Description: as §1
# [3] = target: T1, IL-1; assay: Direct binding to IL-1 by biosensing techniques
# Description: as §1
# T1 sequence (P01584 117-269): as above
Substance,inhibition of IL-1 activity in Serum Amyloid IL-1 assay [1],inhibition of the biological activity of IL-1b in ESAP assay [2],direct binding to IL-1 [3]
LITVLNI (listed as Homo sapiens) [antisense region in the IL-1R receptor picked out by the ALS program],The same effect is also seen,inhibit the biological activity of IL-1b,bind directly to IL-1
"LTILINV (Hypothetical sequence) [scrambled peptide control of LITVLNI, reference compound]",,The effect is dependent on the peptide sequence,
